# Laboratory results as given in patent US20030232781A1.
# Biological target: T1, CTCF (full-length) (UniProt P49711)
# T1 sequence: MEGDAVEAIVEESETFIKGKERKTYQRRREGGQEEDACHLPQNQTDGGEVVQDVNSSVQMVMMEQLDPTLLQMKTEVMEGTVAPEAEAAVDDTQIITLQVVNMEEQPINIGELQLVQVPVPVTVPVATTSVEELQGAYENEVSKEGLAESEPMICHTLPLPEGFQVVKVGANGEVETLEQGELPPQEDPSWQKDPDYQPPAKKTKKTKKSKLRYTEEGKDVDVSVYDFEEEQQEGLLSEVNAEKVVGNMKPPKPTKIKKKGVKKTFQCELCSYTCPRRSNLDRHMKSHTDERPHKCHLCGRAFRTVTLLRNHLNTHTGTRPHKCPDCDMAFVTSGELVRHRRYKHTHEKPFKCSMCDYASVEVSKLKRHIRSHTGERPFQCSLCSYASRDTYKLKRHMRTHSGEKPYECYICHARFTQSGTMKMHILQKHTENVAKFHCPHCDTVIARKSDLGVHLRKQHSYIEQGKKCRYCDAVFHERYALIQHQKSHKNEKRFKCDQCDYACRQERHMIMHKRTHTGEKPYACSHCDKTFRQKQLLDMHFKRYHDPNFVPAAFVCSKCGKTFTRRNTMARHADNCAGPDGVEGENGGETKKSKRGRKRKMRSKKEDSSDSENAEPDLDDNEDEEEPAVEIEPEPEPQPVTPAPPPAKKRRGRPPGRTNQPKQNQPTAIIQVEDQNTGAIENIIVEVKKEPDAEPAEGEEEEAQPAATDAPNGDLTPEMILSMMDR
# Test: SPR
# Conditions: 5mC at all CpG (SssI); at least 1000-fold lower than unmethylated; no stable complexes
row,Sequence,Ka [M⁻¹]
1,CGCGKGGTGGCAG (double strand) [DMD4 methylated],1e+08
2,CGCGKGGTGGCAG (double strand) [DMD7 methylated],1e+08
